From US5258292A, “Enzymic process for the synthesis of ammonium adipate” (Rhone-Poulenc Chimie, priority 1990, dated 1993)

How the values were obtained:
[1] = target: T1, enantioselective amidase (Rhodococcus erythropolis, UniProt P22984); assay: Substrate preference of the enantioselective amidase; type: biochemical, Brevibacterium R 312; settings: compared with the 2-arylpropionamide derivatives, especially 2-phenylpropionamide and 2-(3-benzoylphenyl)propionamide
T1 sequence (P22984 2-521): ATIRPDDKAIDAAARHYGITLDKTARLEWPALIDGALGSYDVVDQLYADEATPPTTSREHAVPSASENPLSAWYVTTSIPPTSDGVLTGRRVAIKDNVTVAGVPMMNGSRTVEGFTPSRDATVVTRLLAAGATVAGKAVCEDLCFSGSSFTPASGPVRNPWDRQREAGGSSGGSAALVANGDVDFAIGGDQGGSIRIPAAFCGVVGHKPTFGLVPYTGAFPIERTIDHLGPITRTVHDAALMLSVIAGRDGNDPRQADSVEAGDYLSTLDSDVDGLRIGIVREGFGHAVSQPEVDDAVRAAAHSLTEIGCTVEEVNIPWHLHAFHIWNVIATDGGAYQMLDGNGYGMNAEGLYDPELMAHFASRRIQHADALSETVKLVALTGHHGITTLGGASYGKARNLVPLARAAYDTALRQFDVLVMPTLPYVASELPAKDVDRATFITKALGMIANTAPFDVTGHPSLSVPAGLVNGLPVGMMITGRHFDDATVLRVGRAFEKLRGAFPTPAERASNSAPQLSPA
Source text: Furthermore, the selectivity of the amidase towards the R enantiomer of HPPAmide is representative of the selectivity towards the S enantiomer of the 2-arylpropionamide derivatives.

[2] = Assay of the enzymic activity: hydrolysis of 2-phenylpropionamide (HPLC); type: biochemical; settings: enzyme purified to homogeneity; 1 unit = 1 μmol of 2-phenylpropionamide hydrolyzed per h; 30° C., pH 7.5
Experimental: The fraction containing the activity is incubated for 30 min at 30° C. in 500 μl of 0.1 M Tris/HCl buffer, pH 7.5, containing 5 mM DTT and 18.1 mM 2-phenylpropionamide. After incubation, 2 ml of an acetonitrile/1 N HCl mixture (90/10) and then 2 ml of a 50 mM H3 PO4 /CH3 CN mixture (75/25) are added to the incubation mixture. After centrifugation at 5000 g for 10 min, an aliquot of the supernatant is injected into an HPLC apparatus for assay of the reaction products.
Column: Nucleosil 5-C18 25 cm
One activity unit is defined as the amount of enzyme required to hydrolyze 1 μmol of 2-phenylpropionamide per h.

[3] = Enantioselective amidase activity with HPPAmide as substrate (HPLC); type: biochemical; settings: purified enzyme, purity of more than 80%; 1 U = 1 μmol of HPPAcid formed per hour
Experimental: b--one unit (U) is equivalent to 1 μmol of HPPAcid formed per hour under the conditions described below.
Consequently, the enantioselective enzymic activity was detected by using 2-(4-hydroxyphenoxy)propionamide (HPPAmide) as the substrate. The reaction is carried out at 25° C., with shaking, in a 50 mM sodium phosphate buffer, pH 7.0, in the presence of Brevibacterium R 312, and is stopped by the addition of a 55/40/5 (v/v) mixture of 0.05 M phosphoric acid, acetonitrile and 1 N HCl. The culture is then centrifuged and the supernatant is analyzed by reversed-phase HPLC (Hibar-Merck RP-18; 5 μm). Elution is effected with an 85/15 (v/v) solution of 0.005 M phosphoric acid and acetonitrile and the respective concentrations of HPPAmide and HPPAcid are measured by the position of the elution peaks and compared with a standard. The enantiomeric excess, defined as the ratio (R-S)/(R+S) x 100, in which R and S are the respective concentrations of the R and S enantiomers of the HPPAcid, is deduced either from polarimetric measurements (using the sodium absorption at 589 nm) or from HPLC analysis on a chiral column.

CC(Oc1ccc(O)cc1)C(N)=O (racemic) [R,S-2-(4-Hydroxyphenoxy)propionamide]
substrate quality for the enantioselective amidase [1]: better substrate

B1: enantioselective amidase of a Rhodococcus: enzyme purified to homogeneity from a Rhodococcus; sequence in FIG. 14 (protein)
chain: GLHELTLAQVAAKIENKELSPVELLDVILARVAEIEPKISAFVTITADSARKAARLAADEIAGGHYRGPLHGVPIGLKDLFEVAGVPNTASSRVRADYIPSSDGAAVEKLTAGGAVMIGKTHTHEFAYGAITPTTRNPWDPTRTPGGSSGGTAAALAAGLIFAGMGTDTGGSIRIPAAVCGTVGLKPTYGRVSRRGVTSLSWSLDHAGPLARTVEDAAIMLNQIAGYDRADPATVDVPVPDYAAALTGDVRGLRIGVPTNFYTDNVHPEVAAAADAAVAQLAHLGAVVREVKIPMAEVIVPTEWSLLVPEASAYHQQMLRERADHYTDETRTFLEAGELVPATDYIKALRVRTLIQAAFRELFQDIDVLIAPTVSSPALPLDDLEVTWPDGTSEGGTITYVRLSAPGNVTGLPALSVPSGFTEQGLPTGIQIIGRPFDEETVLNVGHAYEGCTDWPRLAPL
specific activity [2]: 988 U/mg of protein

B2: enantioselective amidase of Brevibacterium R 312: enzyme purified from Brevibacterium R 312, purity of more than 80%; sequence in FIG. 9 (protein)
chain: MATIRPDDKAIDAAARHYGITLDKTARLEWPALIDGALGSYDVVDQLYADEATPPTTSAEHAVPSASENPLSAWYVTTSIPPTSDGVLTGRRVAIKDNVTVAGVPMMNGSRTVEGFTPSRDATVVTRLLAAGATVAGKAVCEDLCFSGSSFTPASGPVRNPWDRQREAGGSSGGSAALVANGDVDFAIGGDQGGSIRIPAAFCGVVGHKPTFGLVPYTGAFPIERTIDHLGPITRTVHDAALMLSVIAGRDGNDPRQADSVEAGDYLSTLDSDVDGLRIGIVREGFGHAVSQPEVDDAVRAAAHSLTEIGCTVEEVNIPWHLHAFHIWNVIATDGGAYQMLDGNGYGMNAEGLYDPELMAHFASRRIQHADALSETVKLVALTGHHGITTLGGASYGKARNLVPLARAAYDTALRQFDVLVMPTLPYVASELPAKDVDRATFITKALGMIANTAPFDVTGHPSLSVPAGLVNGLPVGMMITGRHFDDATVLRVGRAFEKLRGAFPTPAERASNSAPQLSPA
specific activity [3]: 815 U/mg
